Assay results published in article PMC12078792.

Assays:
[1] = molecular target: HIV-1 CA hexamer tubes, disulfide-stabilized CA hexamers (A14C/E45C) assembled into large molecular weight tubes; assay: co-sedimentation with CA hexamer tubes; details: read off a plot
[2] = molecular target: HIV-1 CA hexamer tubes, disulfide-stabilized CA hexamers (A14C/E45C) assembled into large molecular weight tubes (HIV-1)
[3] = molecular target: HIV-1 CA hexamer tubes, disulfide-stabilized CA hexamers (A14C/E45C) assembled into large molecular weight tubes; assay: co-sedimentation with CA hexamer tubes; details: parent: est. 81; read off a plot

TRIM-NUP153C-HA with CbM.1 replaced by CbM.2 (∆1::2) (from UniProt Q0PF16;P49790) F1417A
response (% Bound NUP153c) ([1]; parent: est. 55): 36

TRIM-NUP153C-HA with the mutation F1417A in CbM.1 (from UniProt Q0PF16 1-304; P49790 896-1475)
TRIM-NUP153c restriction assay: increase in HIV-GFP-positive cells [2]: 7 fold

TRIM-NUP153C-HA, TRIM domain of rhesus TRIM5α (1-304) fused to the HA-tagged human NUP153 C-terminal domain (896-1475), wild type (from UniProt Q0PF16 1-304; P49790 896-1475)
TRIM-NUP153c restriction assay: HIV-GFP-transduced GFP-positive cells relative to empty vector control (% relative to empty vector control) [2]: 18.5

TRIM-NUP153C-HA, TRIM domain of rhesus TRIM5α (1-304) fused to the HA-tagged human NUP153 C-terminal domain (896-1475), wild type (from UniProt Q0PF16;P49790) ∆1::2 (CbM.1 replaced by CbM.2)
response (% Bound NUP153c) [3]: 55
response (% Bound NUP153c) ([1]; parent: est. 81): 55

TRIM-NUP153C-HA, TRIM domain of rhesus TRIM5α (1-304) fused to the HA-tagged human NUP153 C-terminal domain (896-1475), wild type (from UniProt Q0PF16;P49790) ∆1::3 (CbM.1 replaced by CbM.3)
response (% Bound NUP153c) [3]: 47

TRIM-NUP153C-HA, TRIM domain of rhesus TRIM5α (1-304) fused to the HA-tagged human NUP153 C-terminal domain (896-1475), wild type (from UniProt Q0PF16;P49790) ∆1::4 (CbM.1 replaced by CbM.4)
response (% Bound NUP153c) [3]: 51

TRIM-NUP153C-HA, TRIM domain of rhesus TRIM5α (1-304) fused to the HA-tagged human NUP153 C-terminal domain (896-1475), wild type (from UniProt Q0PF16;P49790) ∆2::1 + ∆1::2 (CbM.1 and CbM.2 swapped)
response (% Bound NUP153c) ([1]; parent: est. 81): 97
